Source: the DeepSol protein solubility set

Experiment: soluble on expression in E. coli; label from the status in PepcDB or PDB records

Row | Sequence | soluble on expression in E. coli
1 | MALNDFHVSEPYTLGIELEMQVINPPGYDLSQDSSTLIDAVKPQLTAGEIKHDITESMLEMATGVCRDIDQAAAQLSAMQHVILQAASEHHLGICGGGTHPFQKWQRQEVCDNERYQRTLENFGYLIQQATVFGQHVHVGCANGDDAIYLLHGLSHFVPHFIALSAASPYMQGADTRFACARLNIFSAFPDNGPMPWVSNWQEFAGLFRRLSYTTMIDSIKDLHWDIRPSPAFGTVEVRVMDTPLTLDHAINMAGLIQATAHWLLTERPFKPQEQDYLLYKFNRFQACRYGLEGVLTDAYTGDRRRLADDTLRLLDNVTPSARKLGADSAIDALRLQVKKGGNEAQYMREFIADGGSLIGLVQKHCEIWAGQ | soluble
2 | MGSDKIHHHHHHMIFKRKVYDKLIEWKTLAAGTSAVLLEGARRIGKSTIVEEFAKKEYDDYMILDFARENQDVKNNFVENMNDLDTFFRNLFLLKGKRLKGKNCVIIFDEVQLFPQARQAIKYLVADGRYEYIETGSLISIRKNVKDILIPSEEYRIKMYPMDFEEYLWAINDEVTIPTIRESFEKRKPLGDAIHRRIMKSFRTYMVVGGMPQAVDAYVSGKSYEQIDFVKRNILSLYEEDLAKYDTENREKASVIYRTIPEQLENKNSHFKLSMVDKNARYQNYMDAVSFISEAMIGNECINVTKPEVALELFADRSNFKLYMGDTGLLVTQIMKNRDSTDEDLYKALIIDNLGINQGMIVENIVAQMLRAAGHELYFHEYLYVPEGTTREKKYEIDFMIVKKKKICPIEVKSSNYMSHKSFDYLIQKYQLKCENRFIIYTKDLKYQDGIMYIPIYMTMLL | not soluble
3 | MKDFPIRFVLTDEAITPSAGLALVGYLLHQTKLNKRVNALRPPTVRRDVHISHSDVIRSMIGLLATGKTDFDHIEAYRQDDIFSTSMGIQHVPSSPTLRQRLDQLACLPMTETILWEESMRLLIQRHATLSPCWAKGKTTWLPLDIDGSPFDNSDTKKEGVSRTYKGFDGFTPLFAYAGKEGYIVHAELRPGKQHVQDNMPSFLTTAIRRARQLTSSRLLVRMDAGNDAEANVHVCLKEDVDFVIKRNLRRESKALWFQIASQKGKRVDDGQTEGVQTYELCLPQTAAIDGNTYTYVQVTQVTERTMERNGQVMLVPNYEVESYWVRLKGYEHVRMSDVLALYHDHATCEQFHSELKSDLDLERLPSGKMKTNALVLVMGAFVYNLLRLIGQDLLSDPRHPLHHKVKRRRIKTIIQTVITMAGRLVRRSRQLWMKLTRRSGYSILLLNVYQKWKEAR | not soluble
4 | MALQVASAPHGSSEDSTSASLPANYPYHTRMRRNEYEKAKHDLQIELLKVQSWVKETGQRVVVLFEGRDAAGKGGTIKRFMEHLNPRGARIVALEKPSSQEQGQWYFQRYIQHLPTAGEMVFFDRSWYNRAGVERVMGFCSPLQYLEFMRQAPELERMLTNSGILLFKYWFSVSREEQLRRFISRRDDPLKHWKLSPIDIKSLDKWDDYTAAKQAMFFHTDTADAPWTVIKSDDKKRARLNCIRHFLHSLDYPDKDRRIAHEPDPLLVGPASRVIEEDEKVYAEAAAAPGHANLDIPA | not soluble
5 | MGSIWELDFYSRPILDENQKKVWEVVICESPLDIRTKTDSLFRYAQYCPSTEVNSAWLRTAIQEAISKAGKAPIKIRFFRRQMNNMIVKACEDAGIPALPSRRTLALNQWLKQRMEEVYPQEPGYQGVTTPSVRLDSPLPQRLPDALEGQQWVFVSLSAADLAEMPDWEIGFSEAFPLDFVQVSPETRIPGVLIFSPRALPIAGWMSGLELAFLRVDTSQGMRLVLETGATESWILANIKNPTTVQEARGFEEAKQKANGVHFIGVQSNPEAESFAGFWLLQELGVLEHHHHHH | not soluble
6 | LAMEVGSDSITLTSANTSADAKSVQLFEDFSCSHCSELSLATDADMKTQIEDGNLVVEIKPLNFLDRENIDGHSTHALAAALAVADSNDATLYWNFRAFLMEDQSEIYNQWSDDDFADGVEALGADSSVVDAIRNGDNIQRAYDLATANGEELTEETGSL | not soluble
7 | MSLTHSCRLSVAPMLDWTDRHCRYFHRLLSAQTLLYTEMVTTGAIIHGRGDFLAYNQEEHPVALQFGGSNPKDLAHCAKLAQERGYDEINLNVGCPSDRVQNGRFGACLMGEPDLVAECVAAMRAVVDIPVTVKTRIGIDDQDSYEFLTQFIATVAEKGGCEQFTIHARKAWLSGLSPKENREIPPLDYPRAYQIKRDFPHLTIAVNGGVKSLEEAKLHLQHLDGVMIGREAYQNPYLLAEVDQQIFGLETPVKKRSQVIHEMMPYIERELSQGTHLGHMTRHMLGLFQNMPGARQWRRHISENAHKPGAGLEVVEQALAKIPYQELGEGHHHHHH | soluble
8 | MKNKLLFMMLTILGAPGIAAAAGYDLANSEYNFAVNELSKSSFNQAAIIGQAGTNNSAQLRQGGSKLLAVVAQEGSSNRAKIDQTGDYNLAYIDQAGSANDASISQGAYGNTAMIIQKGSGNKANITQYGTQKTAIVVQRQSQMAIRVTQR | not soluble
9 | MSLPAPQDPRNLPIRQQMEALIRRKQAEITQGLESIDTVKFHADTWTRGNDGGGGTSMVIQDGTTFEKGGVNVSVVYGQLSPAAVSAMKADHKNLRLPEDPKTGLPVTDGVKFFACGLSMVIHPVNPHAPTTHLNYRYFETWNQDGTPQTWWFGGGADLTPSYLYEEDGQLFHQLHKDALDKHDTALYPRFKKWCDEYFYITHRKETRGIGGIFFDDYDERDPQEILNMVEDCFDAFLPSYLTIVKRRKDMPYTKEEQQWQAIRRGRYVEFNLIYDRGTQFGLRTPGSRVESILMSLPEHASWLYNHHPAPGSREAKLLEVTTKPREWVKEGHHHHHH | soluble
10 | MSEPLDLNQLAQKIKQWGLELGFQQVGITDTDLSESEPKLQAWLDKQYHGEMDWMARHGMLRARPHELLPGTLRVISVRMNYLPANAAFASTLKNPKLGYVSRYALGRDYHKLLRNRLKKLGEMIQQHCVSLNFRPFVDSAPILERPLAEKAGLGWTGKHSLILNREAGSFFFLGELLVDIPLPVDQPVEEGCGKCVACMTICPTGAIVEPYTVDARRCISYLTIELEGAIPEELRPLMGNRIYGCDDCQLICPWNRYSQLTTEEDFSPRKPLHAPELIELFAWSEEKFLKVTEGSAIRRIGHLRWLRNIAVALGNAPWDETILTALESRKGEHPLLDEHIAWAIAQQIERRNACIVEVQLPKKQRLVRVIEKGLPRDA | soluble
11 | METLLLVQLFHELALKGKNRPFFLKRAKAHVRRALKGLGVALEGEWPMALLFRLPEEAWPEAKARLQDTLGVERFARVHRTPPDLEALKAALEKALEGQAFGSFRITAKRSDKAFPLTSPEIERALGAFVKGKTGAPVRLKGAEREFVVRVLPGAALLEVERHPGPGGLPPGVSGRVVALLSGGIDSPVAAYRLMRRGAEVVLVHFHPFPLLSGASREKAKALAERLARFQHRLRLHLVPFSEVQRHIIVEAPTAYRVVLYRRYMLRIAEAIAREEGALALCTGDSLGQVASQTLENLHAVNQAATLPVFRPLIGWDKEEIVAEAQRIGTYATSILPDEECCTLFAPKHPVTRARLEVVLETEARLPTEELLALALKEREVLTYTWPGKPLPEEPEGAFIMEHGPA | soluble
12 | MAVELRYDEEAVFLRRVNRFVVEVKSSRGVVRCHLMDTGRIDHLASPGRRGVLIAWLNRLGGKTVCRAQAFKTAGGVVAVVDSRVPNRLFAEAAPMVVGGDASIEAEREVFGSRLDFLISTGRGLWAVEVKGVNLSLDGVGLFPNAPSARAVKHLEVLARLAREGVKPLMAFVALRPDIRVFAPNYRVDRRFASLACTLLRRGLVGMVGIRVSIDLEPGVVRIRPVATAPVQCPPLQPGR | soluble
13 | MSLSNSPLPPNATPMERALAAVTERLEAIPLPYPDLWNPDTCPAGHLPWLAWTLSVDDWKADWSDAVKRSRLRSAMAIQRRKGTANSVRMVVASFGGAVTIREWWQQQPRGQPHTFELTLTLNGSDGRAASARFVDEVIAEVERTKPVRSHFGFVQGLQATGNVSLVTGVRIINYRRLSMMAQGEGHHHHHH | not soluble
14 | EPKLDMNKQKISPAEVAKHNKPDDCWVVINGYVYDLTRFLPNHPGGQDVIKFNAGKDVTAIFEPLHAPNVIDKYIAPEKKLGPLQGSMPPELVCPPYAPGETKEDIARKEQLKSLLPPLDNIINLYDFEYLASQTLTKQAWAYYSSGANDEVTHRENHNAYHRIFFKPKILVDVRKVDISTDMLGSHVDVPFYVSATALCKLGNPLEGEKDVARGCGQGVTKVPQMISTLASCSPEEIIEAAPSDKQIQWYQLYVNSDRKITDDLVKNVEKLGVKALFVTVDAPSLGQREKDMKLKFSNTKAGPKAMKKTNVEESQGASRALSKFIDPSLTWKDIEELKKKTKLPIVIKGVQRTEDVIKAAEIGVSGVVLSNHGGRQLDFSRAPIEVLAETMPILEQRNLKDKLEVFVDGGVRRGTDVLKALCLGAKGVGLGRPFLYANSCYGRNGVEKAIEILRDEIEMSMRLLGVTSIAELKPDLLDLSTLKARTVGVPNDVLYNEVYEGPTLTEFEDA | soluble
15 | MKERLEHYSTSSIYSGFEVYLPLVLQTITDVIIAENIKSKKETGFKLYEHFTSRIKSEASMIEKCQRKQLPLTSKSALKIIKDSIGIRIICGFIDDIYRMVDLLKSIPGMSVNTEKDYILNAKPNGYRSYHLILELETHFPDILGEKKGCYFIEVQLRTIAQDSWASLEHQMKYKHQVANAEMITRELKRCADELASCDVTMQTIRQLIQETTEEE | not soluble
16 | LSNLPRVKHTLVPPPFAHAHEQVAASGPVINEFEMRIIEKEVQLDEDAYLQAMTFDGSIPGPLMIVHEGDYVELTLINPPENTMPHNIDFHAATGALGGGGLTLINPGEKVVLRFKATRAGAFVYHCAPGGPMIPWHVVSGMAGCIMVLPRDGLKDHEGKPVRYDTVYYIGESDHYIPKDEDGTYMRFSDPSEGYEDMVAVMDTLIPSHIVFNGAVGALTGEGALKAKVGDNVLFVHSQPNRDSRPALIGGHGDLVWETGKFHNAPERDLETWFIRGGTAGAALYKFLQPGVYAYVNHNLIEAVHKGATAHVLVEGEWDNDLMEQVVAPVGLTG | soluble
17 | GPGSMRYFVVAHEFQAEEDVELSVFKGEILCATEGVAQDGWIKVEATTDARRRGFVPMSYLREISAAEASTSMSAPASSAPPLTGESTSPMRTPQRAGGESSARAALANTTVSTSLDLGNCSGVVAKGFSPSLQPMRSPETTAVHAAPASSSIHLTPAQQAAGPVSRHLLENPNAVVDAFMKNEVYFNQLMQRRASALAQMQSGLEEAMTEVAACKDRSAVLTRKLHDLDGVVERERQRWMDRVEEEKVHVSRSIPYSAPLAVPVSSGTTPLRSPIIGPHSGVGRSVLDDDSPRQLRA | soluble
18 | MSLRFALTPGEPAGIGPDLCLLLARSAQPHPLIAIASRTLLQERAGQLGLAIDLKDVSPAAWPERPAKAGQLYVWDTPLAAPVRPGQLDRANAAYVLETLTRAGQGCLDGHFAGMITAPVHKGVINEAGIPFSGHTEFLADLTHTAQVVMMLATRGLRVALATTHLPLREVADAISDERLTRVARILHADLRDKFGIAHPRILVCGLNPHAGEGGHLGREEIEVIEPCLERLRGEGLDLIGPLPADTLFTPKHLEHCDAVLAMYHDQGLPVLKYKGFGAAVNVTLGLPIIRTSVDHGTALDLAGSGRIDSGSLQVALETAYQMAASRC | soluble
19 | SMITIKFDLNRYSCSWGAGGAFGGNRGLRPIPPEKGIFPLDHLHECDAEKKEYLGCLKSSAHKSEQCRHLSKKYLQCRMAKNLMAKQDMAELGFSGVKELDSTEDKNTESIEH | soluble
20 | SEESRESPAEHGYYMPAEWDSHAQTWIGWPERQDNWRHNALPAQRVFAGVAKAISKFEPVTVCASPAQWENARKQLPEDIRVVEMSMNDSWFRDSGPTFIVRKRPVKLSSLNRNIAGIDWNFNAWGGANDGCYNDWSHDLLVSRKILALERIPRFQHSMILEGGSIHVDGEGTCLVTEECLLNKNRNPHMSKEQIEEELKKYLGVQSFIWLPRGLYGDEDTNGHIDNMCCFARPGVVLLSWTDDETDPQYERSVEALSVLSNSIDARGRKIQVIKLYIPEPLYMTEEESSGITQDGEAIPRLAGTRLAASYVNFYIANGGIIAPQFGDPIRDKEAIRVLSDTFPHHSVVGIENAREIVLAGGNIHCITQQQPAEPTSVAENGH | soluble
